Source: doi:10.1101/860916 (bioRxiv, 2019)

T1: FtsZ of S. coelicolor, C-terminal His-tag fusion (Streptomyces coelicolor, UniProt P45500 1-399)
T1 sequence (looked up): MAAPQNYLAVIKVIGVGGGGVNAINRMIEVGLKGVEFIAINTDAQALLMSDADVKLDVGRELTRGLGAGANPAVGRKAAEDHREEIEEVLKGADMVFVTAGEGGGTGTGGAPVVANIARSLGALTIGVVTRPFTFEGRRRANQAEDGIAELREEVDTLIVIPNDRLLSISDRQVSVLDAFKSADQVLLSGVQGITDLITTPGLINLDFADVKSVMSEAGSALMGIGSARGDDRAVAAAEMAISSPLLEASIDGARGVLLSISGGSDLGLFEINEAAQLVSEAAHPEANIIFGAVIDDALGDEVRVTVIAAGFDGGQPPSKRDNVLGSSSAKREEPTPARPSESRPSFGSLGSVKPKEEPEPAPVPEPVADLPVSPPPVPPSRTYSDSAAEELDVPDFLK


Experiments:
[1] = target: SsgB of S. coelicolor, wild type, His6-tagged (Streptomyces coelicolor) (UniProt Q9L268); assay: crystal structure
[2] = target: SsgB of S. coelicolor, wild type, His6-tagged (Streptomyces coelicolor) (UniProt Q9L268); assay: SEC
[3] = target: T1, FtsZ of S. coelicolor, C-terminal …; assay: co-sedimentation

Row | Molecule | stoichiometry N [1] | stoichiometry N [2] | binding result [3]
1 | SsgB of S. coelicolor, wild type, His6-tagged (from UniProt Q9L268 1-137) (natural protein) | 3 | 3 | –
2 | SsgB of S. coelicolor, wild type, His6-tagged (natural protein, Streptomyces coelicolor, UniProt Q9L268 1-137, looked up) MNTTVSCELHLRLVVSSESSLPVPAGLRYDTADPYAVHATFHTGAEETVEWVFARDLLAEGLHRPTGTGDVRVWPSRSHGQGVVCIALSSPEGEALLEAPARALESFLKRTDAAVPPGTEHRHFDLDQELSHILAES | – | – | binds
3 | SsgB E120A of S. coelicolor, His6-tagged (natural protein, Streptomyces coelicolor, UniProt Q9L268 1-137, looked up) MNTTVSCELHLRLVVSSESSLPVPAGLRYDTADPYAVHATFHTGAEETVEWVFARDLLAEGLHRPTGTGDVRVWPSRSHGQGVVCIALSSPEGEALLEAPARALESFLKRTDAAVPPGTAHRHFDLDQELSHILAES | – | – | binds
4 | SsgB E120G of S. coelicolor, His6-tagged (natural protein, Streptomyces coelicolor, UniProt Q9L268 1-137, looked up) MNTTVSCELHLRLVVSSESSLPVPAGLRYDTADPYAVHATFHTGAEETVEWVFARDLLAEGLHRPTGTGDVRVWPSRSHGQGVVCIALSSPEGEALLEAPARALESFLKRTDAAVPPGTGHRHFDLDQELSHILAES | – | – | binds
